Reference: paper PMC2267215
One block for each substance: values may come before it.

Legend:
[1] = target: NCAM 1FN3–2FN3 (wild-type FN3 domain tandem of human neural cell adhesion molecule) (human); test: SPR; Biacore 3000, 25 °C; NCAM 1FN3–2FN3 proteins amine-coupled to a CM4 chip (1800 RU wild type, 1900 RU M610R); analytes FGFR1 D1–D3 or D2–D3 at 1–100 μM; HBS-EP running buffer, analytes in PBS; KD estimated from plateau values at equilibrium, very approximate
[2] = target: FGFR1 D2-D3 (Homo sapiens) (UniProt P11362); details: cited from earlier work
[3] = target: NCAM 1FN3–2FN3 M610R mutant (human); test: SEC; size-exclusion chromatography of the purified NCAM 1FN3–2FN3 proteins; data not shown
[4] = target: NCAM 1FN3–2FN3 R690E mutant (human); test: as above
[5] = target: NCAM 1FN3–2FN3 Y672E mutant (human); test: as above

Substance: FGFR1 D2–D3 (soluble ectodomain construct of fibroblast growth factor receptor 1, residues 151–364) (from UniProt P11362 151-364) (domain or fragment)
Kd [1]: > 100 µM

Substance: NCAM 1FN3-2FN3 (from UniProt P13591)
Kd [2]: 10 µM

Second part, the substance after the results:

stoichiometry N [3]: 2
Substance: NCAM 1FN3–2FN3 M610R mutant (domain or fragment)

stoichiometry N [4]: 2
Substance: NCAM 1FN3–2FN3 R690E mutant (domain or fragment)

stoichiometry N [5]: 2
Substance: NCAM 1FN3–2FN3 Y672E mutant (domain or fragment)
